{"source": "paper PMC3091828", "about": "(Biochemistry, 2011)", "binders": {"B1": {"name": "CL-arrestin-1-F79C, bimane-labeled (natural protein)", "chain": "MKANKPAPNHVIFKKISRDKSVTIYLGKRDYIDHVERVEPVDGVVLVDPELVKGKRVYVSLTAAFRYGQEDIDVMGLSCRRDLYFSQVQVFPPVGASGATTRLQESLIKKLGANTYPFLLTFPDYLPSSVMLQPAPQDVGKSAGVDFEIKAFATHSTDVEEDKIPKKSSVRLLIRKVQHAPRDMGPQPRAEASWQFFMSDKPLRLAVSLSKEIYYHGEPIPVTVAVTNSTEKTVKKIKVLVEQVTNVVLYSSDYYIKTVAAEEAQEKVPPNSSLTKTLTLVPLLANNRERRGIALDGKIKHEDTNLASSTIIKEGIDKTVMGILVSYQIKVKLTVSGLLGELTSSEVATEVPFRLMHPQPEDPDTAKESFQDENFVFEEFARQNLKDAGEYKEEKTDQEAAMDE", "modifications": "monobromobimane label on the unique cysteine (F79C)"}, "B2": {"name": "CL-arrestin-3-F88C, bimane-labeled (natural protein, UniProt P32120-2 1-409, looked up)", "chain": "MGEKPGTRVFKKSSPNSKLTVYLGKRDFVDHLDKVDPVDGVVLVDPDYLKDRKVFVTLTVAFRYGREDLDVLGLSFRKDLFIANYQACPPTPNPPRPPTRLQERLLRKLGQHAHPFFFTIPQNLPSSVTLQPGPEDTGKALGVDFEIRAFVAKSLEEKSHKRNSVRLVIRKVQFAPEKPGPQPSAETTRHFLMSDRSLHLEASLDKELYYHGEPLNVNVHVTNNSTKTVKKIKVSVRQYADIVLFSTAQYKVPVAQVEQDDQVSPSSTFSKVYTITPLLSNNREKRGLALDGKLKHEDTNLASSTIVKEGANKEVLGILVSYRVKVKLVVSRGGDVSVELPFVLMHPKPHDHIALPRPQSAAPETDAPVDTNLIEFETNYATDDDIVFEDFARLRLKGLKDEDYDDQFS", "modifications": "monobromobimane label on the unique cysteine (F88C)"}}, "target": "MBP-parkin (UniProt O60260 1-465)", "sequence (O60260 whole entry)": "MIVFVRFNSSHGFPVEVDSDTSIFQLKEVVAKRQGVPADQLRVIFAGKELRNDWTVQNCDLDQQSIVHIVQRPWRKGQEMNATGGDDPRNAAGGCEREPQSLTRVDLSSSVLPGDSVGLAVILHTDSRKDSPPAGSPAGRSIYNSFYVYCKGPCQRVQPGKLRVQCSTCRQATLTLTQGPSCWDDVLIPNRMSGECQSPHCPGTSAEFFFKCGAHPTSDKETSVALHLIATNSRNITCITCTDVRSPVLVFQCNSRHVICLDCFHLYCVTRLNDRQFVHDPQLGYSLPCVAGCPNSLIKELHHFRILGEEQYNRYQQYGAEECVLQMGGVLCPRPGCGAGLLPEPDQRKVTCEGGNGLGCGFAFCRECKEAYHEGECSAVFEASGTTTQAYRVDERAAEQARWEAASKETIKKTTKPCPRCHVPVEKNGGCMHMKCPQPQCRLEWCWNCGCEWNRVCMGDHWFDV", "experiment": "fluorescence polarisation", "data": [{"binder": "B1", "values": [{"measurement": "Kd", "value": 15.5, "unit": "µM"}]}, {"binder": "B2", "values": [{"measurement": "Kd", "value": 3.36, "unit": "µM"}]}]}
